From patent US20080096222

Key:
[1] = target: H3-GST with the mutation K4A
[2] = target: H3-GST with the mutation R2A

B1: myc-tagged human haspin (protein)
chain: AASLPGPGSRLFRTYGAADGRRQRRPGREAAQWFPPQDRRRFFNSSGSSDASIGDPSQSDDPDDPDDPDFPGSPVRRRRRCPGGRVPKDRPSLTVTPKRWKLRARPSLTVTPRRLGLRARPPQKCSTPCGPLRLPPFPSRDSGRLSPDLSVCGQPRDGDELGISASLFSSLASPCPGSPTPRDSVISIGTSACLVAASAVPSDLHLPEVSLDRASLPCSQEEATGGAKDTRMVHQTRASLRSVLFGLMNSGTPEDSEFRADGKNMRESCCKRKLVVGNGPEGPGLSSTGKRRATGQDSCQERGLQEAVRREHQEASVPKGRIVPRGTDRLERTRSSRKSKHQEATETSLLHSHRFKKGQKLGKDSFPTQDLTPLQNACFWTKTRASFSFHKKKIVTDVSEVCSIYTTATSLSGSLLSECSNRPVMNRTSGAPSSWHSSSMYLLSPLNTLSISNKKASDAEKVYGECSQKGPVPFSHCLPTEKLQRCEKIGEGVFGEVFQTIADHTPVAIKIIAIEGPDLVNGSHQKTFEEILPEIIISKELSLLSGEVCNRTEGFIGLNSVHCVQGSYPPLLLKAWDHYNSTKGSANDRPDFFKDDQLFIVLEFEFGGIDLEQMRTKLSSLATAKSILHQLTASLAVAEASLRFEHRDLHWGNVLLKKTSLKKLHYTLNGKSSTIPSCGLQVSIIDYTLSRLERDGIVVFCDVSMDEDLFTGDGDYQFDIYRLMKKENNNRWGEYHPYSNVLWLHYLTDKMLKQMTFKTKCNTPAMKQIKRKIQEFHRTMLNFSSATDLLCQHSLFK
- phosphorylation of H3-GST by haspin (in vitro kinase assay) [1]: substantially reduced phosphorylation of H3-GST by haspin
- phosphorylation of H3-GST by haspin (in vitro kinase assay) [2]: substantially reduced phosphorylation of H3-GST by haspin
